Assay results: patent US20250368742A1 (D2M BIOTHERAPEUTICS, published 2025)
Numbering of substitutions follows the chain as printed. Where two headings read alike, the source gives them in different places.

T1: human MICA002 on cells (human)
T1 chain: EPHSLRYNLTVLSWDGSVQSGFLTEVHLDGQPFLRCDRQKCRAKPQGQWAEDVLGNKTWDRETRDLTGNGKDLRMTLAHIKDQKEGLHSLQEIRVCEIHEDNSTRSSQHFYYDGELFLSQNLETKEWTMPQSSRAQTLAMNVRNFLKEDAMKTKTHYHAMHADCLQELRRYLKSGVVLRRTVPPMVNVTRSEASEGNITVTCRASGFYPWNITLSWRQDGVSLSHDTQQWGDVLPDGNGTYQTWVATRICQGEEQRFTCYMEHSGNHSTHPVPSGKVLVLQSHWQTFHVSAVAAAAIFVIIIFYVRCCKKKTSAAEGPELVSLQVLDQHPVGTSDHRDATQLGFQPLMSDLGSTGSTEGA

T2: MICA002-ECD-HISAvi (human, UniProt Q29983 24-308)
T2 construct: also called MICA002 polypeptide
T2 chain: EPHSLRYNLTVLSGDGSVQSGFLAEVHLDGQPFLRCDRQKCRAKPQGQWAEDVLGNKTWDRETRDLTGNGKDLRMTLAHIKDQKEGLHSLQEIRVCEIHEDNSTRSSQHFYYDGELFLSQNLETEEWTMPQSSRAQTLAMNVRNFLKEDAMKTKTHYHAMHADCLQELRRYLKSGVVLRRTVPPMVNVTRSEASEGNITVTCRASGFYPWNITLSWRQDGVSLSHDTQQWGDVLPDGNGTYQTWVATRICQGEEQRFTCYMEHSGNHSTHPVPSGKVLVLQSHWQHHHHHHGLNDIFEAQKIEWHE

T3: MICA008-ECD-HISAvi (human)
T3 construct: Two sources under one name in the two kinetic assays; also called MICA008 polypeptide
T3 chain: T2 chain with G14W, C36Y, M129V, K173E, G206S, W210R, T213I, S215T, Q251R

T4: MICA004-ECD-HISAvi (human)
T4 construct: also called MICA004 polypeptide
T4 chain: T2 chain with G14W, C36Y, L122V, M129V, K173E, G175S, T181R, G206S, W210R, S215T

T5: NKG2D-His (UniProt P26718 78-216, limits assumed)
T5 sequence (looked up): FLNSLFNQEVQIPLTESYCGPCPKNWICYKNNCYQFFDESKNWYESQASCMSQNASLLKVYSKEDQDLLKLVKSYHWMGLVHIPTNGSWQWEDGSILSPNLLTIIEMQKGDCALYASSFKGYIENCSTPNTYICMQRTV

B1: D2M001-003 (antibody, V domains shown)
VH: QVQLVQSGAEVKKPGSSVKVSCKASGYAFHDYLIEWVRQAPGQGLEWIGGINPGSGSTNYAQKFQGRATLTADKSTSTAYMELSSLRSEDTAVYYCARLDGNYVGYWGQGTLVTVSS
VL: DIQMTQSPSSLSASVGDRVTITCRASGNIHNYLAWYQQKPGKSPKLLVYHAKTLQSGVPSRFSGSGSGTDYTLTISSLQPEDVATYYCQHFWSTPRTFGGGTKVEIK
notes: only the CDRs are tied to the name in the text; copies: 2 + 2
B2: D2M001-004 (antibody, V domains shown)
VH: B1 VH with H30V, I51V, D100E
VL: B1 VL
notes: as for B1
B3: 13A9 (antibody, human IgG1, kappa, V domains shown)
VH: QVQLQQSGAELVRPGTSVKVSCKASGYAFTNYLIEWVKQRPGQGLEWIGAINPGSGATNYNEKFKDKARLTADKSSNTAYLQFSSLTSDDSAVYFCARFLGNYFDNWGQGATLTVSS
VL: DIQMTQSPASLSASVGETVTITCRASGNIHSYLAWYQQKQGKSPQLLVYYAETLADGVPSRFSGRGSGTQYSLKINSLQPEDFGSYFCQQFWTTPYTFGGGTKVEIKR
B4: B10G5 (antibody, human IgG1, kappa, V domains shown)
VH: EVQLEESGPGLVKPSQSLSLTCTVTGYSITSDYAWNWIRQFPGNKLEWMGYISYSGSTNYNPSLKSRISITRDTSKNQFFLQLNSVITEDTATYYCARGGTYFDYWGQGTTLTVSS
VL: DIVLTQTTSYLSVSLGGRVTIACKASAHINNWLAWYQQKPGNAPRLLISDATSLETGVPSRFSGSGSGKDYTLSITSLQTEDVATYYCQHYWSTPWTFGGGTKLEIKR
notes: also called B10G5-2; P2B10G5
B5: 6E1.1.12 (antibody, human IgG1, kappa, V domains shown)
VH: QGQMQQSGAELVKPGASVKLSCKTSGFTFSDNYISWLKQKPGQSLEWIAWIYAGTGGSSYNQKFRDKAQLTVDTSSRTAYMQLSSLTTEDSAIYYCARHDYYGTSGAWFAYWGRGTLVTVSA
VL: DVLMTQTPLSLPVSLGDQASISCRSSQHIVHSNENTYLEWYLQKPGQSPKLLIYKVSNRFSGVPDRFSGSGSGTDFTLKISRVEAEDLGVYYCFQGSHVPWTFGGGTKVEIKR
B6: CM33322 (antibody, human IgG1, kappa)
heavy: not shown
light: DIVMTQTPLSSPVTLGQPASISCRSSQSLVHRDGNTYLSWFLQRPGQAPRLLIYRISNRFSGVPDRFSGSGAGTDFTLKISRVEAEDVGVYYCMQATQIPNTFGQGTKLEIKRTVAAPSVFIFPPSDEQLKSGTASVVCLLNNFYPREAKVQWKVDNALQSGNSQESVTEQDSKDSTYSLSSTLTLSKADYEKHKVYACEVTHQGLSSPVTKSFNRGEC
B7: MICB005-ECD-HISAvi (ligand)
chain: EPHSLRYNLMVLSQDGSVQSGFLAEGHLDGQPFLRYDRQKRRAKPQGQWAEDVLGAKTWDTETEDLTENGQDLRRTLTHIKDQKGGLHSLQEIRVCEIHEDSSTRGSRHFYYDGELFLSQNLETQESTVPQSSRAQTLAMNVTNFWKEDAMKTKTHYRAMQADCLQKLQRYLKSGVAIRRTVPPMVNVTCSEVSEGNITVTCRASSFYPRNITLTWRQDGVSLSHNTQQWGDVLPDGNGTYQTWVATRIRQGEEQRFTCYMEHSGNHGTHPVPSGKALVLQSQRTDHHHHHHGLNDIFEAQKIEWHE
notes: Two sources under one name in the two kinetic assays; also called MICB005 polypeptide
B8: h36B3GS (antibody, V domains shown)
VH: QVQLVQSGAEVKKPGASVKVSCKASGYAFTKYNFYWVRQAPGQGLEWIGYIDPYFGGTVYNQKFKGKATLTVDKSTSTAYMELRSLRSDDTAVYYCATTDSYSLFTYWGQGTLVTVSS
VL: DIQMTQSPSSLSASVGDRVTITCRASQDISNYLNWYQQTPGKAVKLLIYYTSRLHSGVPSRFSGSGSGTDYTLTISSLQPEDIATYFCLQGNTLPFTFGQGTKLEIK
notes: humanized #36 variant; the text writes h36B3(GS); copies: 2 + 2

Key:
[1] = target: T1, human MICA002 on cells; assay: flow cytometry, CHO-MICA002 cells
[2] = target: T6, human MICB005 on cells (human); assay: flow cytometry, CHO-MICB005 cells
T6 construct: whole, on cells; also called CHO-MICB005; C1R-MICB005
Experimental: (§1) IgG1 is an isotype control (IgG). The antibody binding signals of APC (gMFI) to MICA/B were measured by flow cytometry.
(§2) After an incubation time of 30 minutes, the plate was centrifuged and cells were washed with PBS three times. […] After mixing for 30 minutes at room temperature, cells were washed with PBS twice. Fluorescent signal was detected and quantified by flow cytometry (Attune™ CytPix™, ThermoFisher) within the population of live cells (viability dye PI negative).

[3] = target: T7, human MICA008 on cells (human); assay: flow cytometry, HeLa cells (MICA008)
T7 construct: whole, on cells; also called CHO-MICA008; C1R-MICA008
Experimental: as §1, §2

[4] = target: T7, human MICA008 on cells; assay: flow cytometry, CHO-MICA008 cells
Experimental: as §1, §2

[5] = target: T1, human MICA002 on cells; assay: flow cytometry, CHO-MICA002 cells
Experimental: CHO-MICA002 cells were incubated with titrated anti-MICA/B antibodies and then APC-labeled anti-human Fc antibody. […] The antibody binding signals of APC (gMFI) to MICA/B were measured by flow cytometry.
as §2

[6] = target: T8, MICA009Avi (human); assay: BLI (GatorPrime); antibody on anti-hIgG Fc probe, monomeric antigen in solution;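 note: binding kinetics of anti-MICA/B antibodies measured by biolayer interferometry, with dissociation followed for about 10 min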
T8 construct: extracellular domain
Experimental: (§3) The binding kinetics of the antibodies were also measured using the GatorPrime BLI (Biolayer Interferometry) system (Gator Bio, USA). Specifically, the anti-MICA/B antibodies were loaded with HFC (Anti-hIgG Fc, Gator Bio, Cat #: 160003). […] The dissociation kinetics were monitored for approximately 10 minutes. The probes were regenerated between binding cycles with Regeneration Buffer (Gator Bio, Cat #: 120012). Binding kinetics were analyzed using software supplied by the manufacturer.

[7] = target: B7; assay: as above
Experimental: as §3

[8] = target: T9, Cynomolgus monkey MICA (cynoMICA) (Cynomolgus monkey (Macaca fascicularis)); assay: as above
T9 construct: also called cyno monkey MICA; cyno MIC protein
Experimental: as §3

[9] = target: T2, MICA002-ECD-HISAvi; assay: as above
Experimental: as §3

[10] = target: T3, MICA008-ECD-HISAvi; assay: as above
Experimental: as §3

[11] = target: T4, MICA004-ECD-HISAvi; assay: as above
Experimental: as §3

[12] = target: T10, human MICA004 on cells (human); assay: flow cytometry, CHO-MICA004 cells
T10 construct: whole, on cells; also called CHO-MICA004; C1R-MICA004
Experimental: as §1, §2

[13] = target: B7; assay: SPR (Carterra); antibody captured by anti-human Fc, monomeric ECD antigen injected;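 for result: dissociation phase followed for about 10 min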
Experimental: (§4) The dissociation kinetics were monitored for approximately 10 minutes. The chip surface was regenerated between binding cycles with 10 mM glycine HCl, pH 1.7. Binding kinetics were analyzed using software supplied by the manufacturer.

[14] = target: T2, MICA002-ECD-HISAvi; assay: as above
Experimental: as §4

[15] = target: T3, MICA008-ECD-HISAvi; assay: as above
Experimental: as §4

[16] = target: T4, MICA004-ECD-HISAvi; assay: as above
Experimental: as §4

[17] = target: B7; assay: as above; remark: listed apart in the source
Experimental: as §4

[18] = target: T2, MICA002-ECD-HISAvi; assay: as above
Experimental: as §4

[19] = target: T3, MICA008-ECD-HISAvi; assay: as above
Experimental: as §4

[20] = target: T4, MICA004-ECD-HISAvi; assay: as above
Experimental: as §4

[21] = target: T5, NKG2D-His; assay: ELISA: NKG2D-His coated, MICA/B-ECD titrated, detection 1D5 + anti-hFc-HRP
[22] = target: T1, human MICA002 on cells; assay: flow cytometry, CHO-MICA002 cells

Binder: B1
- EC50 [1]: 3.59 µg/mL

Binder: B2
- EC50 [1]: 4.2 µg/mL

Binder: B3
- EC50 [2]: 1.71 µg/mL
- EC50 [3]: 4.09 µg/mL
- EC50 [4]: 2.08 µg/mL
- EC50 [5]: 3.56 µg/mL
- Kd [6]: 0.262 nM
- Kd [7]: 0.425 nM
- Kd [8]: 13.9 nM
- Kd [9]: 0.0956 nM
- Kd [10]: 0.504 nM
- Kd [11]: 1.39 nM
- EC50 [12]: 7.25 µg/mL
- Kd [13]: 0.486 nM
- Kd [14]: 0.313 nM
- Kd [15]: 1 nM
- Kd [16]: 12.8 nM
- Kd [17]: 4.38 nM
- Kd [18]: 1.67 nM
- Kd [19]: 23.2 nM
- Kd [20]: 5.02 nM

Binder: B4
- Kd [6]: 0.716 nM
- Kd [7]: 1.35 nM
- Kd [10]: 0.625 nM
- Kd [11]: 1.16 nM
- Kd [17]: 2.27 nM
- binding result [18]: no binding
- Kd [19]: 0.846 nM
- Kd [20]: 6.92 nM

Binder: B5
- EC50 [2]: 0.184 µg/mL
- EC50 [3]: 0.269 µg/mL
- EC50 [4]: 0.15 µg/mL
- EC50 [5]: 0.882 µg/mL
- Kd [6]: 3.94 nM
- Kd [7]: 4.54 nM
- EC50 [12]: 0.239 µg/mL
- Kd [17]: 8.62 nM

Binder: B6
- binding result [7]: no binding
- binding result [9]: no binding
- binding result [10]: no binding
- binding result [11]: no binding

Binder: B7
- EC50 (read off the curve) [21]: ~0.02 µg/mL

Binder: B8
- EC50 [22]: 0.6 µg/mL
